Measured values from patent publication US20110311551A1 (INSERM, published 2011).

Columns and labels:
[1] = target: T1, E2 octapeptide 479-486, GPDQRPYC (Hepatitis C virus); assay: octapeptides
T1 peptide: GPDQRPYC

[2] = target: T2, E2 octapeptide 487-494, WHYPPKPC (Hepatitis C virus); assay: octapeptides
T2 peptide: WHYPPKPC

[3] = target: T3, E1 region 297-306, RHWTTQGCNC (Hepatitis C virus); assay: overlapping octapeptides
T3 construct: Region found with overlapping octapeptides; also called E1 297-306
T3 peptide: RHWTTQGCNC

[4] = target: T4, E2 region 613-621, YRLWHYPCT (Hepatitis C virus); assay: overlapping octapeptides
T4 construct: Region found with overlapping octapeptides; also called E2 613-621
T4 peptide: YRLWHYPCT

[5] = target: T5, peptides corresponding to the E2 region 612-626 (Hepatitis C virus); assay: overlapping synthetic pentadecapeptides on a membrane, colorimetric immunoassay
T5 construct: 612-626 was counted over to 3-17 on that entry; also called E2 612-626
T5 peptide: PYRLWHYPCTINYTI

[6] = target: T6, peptides corresponding to the E2 region 686-697 (Hepatitis C virus); assay: as above
T6 construct: 686-697 was counted over to 2-13 on that entry; also called E2 686-697
T6 peptide: STGLIHLHQNIV

[7] = target: T7, peptides corresponding to the 347-356 E1 region (Hepatitis C virus); assay: as above
T7 construct: 347-356 was counted over to 5-14 on that entry; Made as overlapping pentadecapeptides on a membrane; also called E1 347-356

[8] = target: T8, E2 region 480-494, PDQRPYCWHYPPKPC (Hepatitis C virus); assay: ELISA with pentadecapeptides
T8 construct: also called E2 480-494; regions 480-494 of E2 as pentadecapeptide
T8 peptide: PDQRPYCWHYPPKPC

human serum albumin = target: T9, human serum albumin (human, UniProt P02768 25-609); assay: EIA
T9 construct: also called HSA
T9 sequence (P02768 25-609 limits assumed): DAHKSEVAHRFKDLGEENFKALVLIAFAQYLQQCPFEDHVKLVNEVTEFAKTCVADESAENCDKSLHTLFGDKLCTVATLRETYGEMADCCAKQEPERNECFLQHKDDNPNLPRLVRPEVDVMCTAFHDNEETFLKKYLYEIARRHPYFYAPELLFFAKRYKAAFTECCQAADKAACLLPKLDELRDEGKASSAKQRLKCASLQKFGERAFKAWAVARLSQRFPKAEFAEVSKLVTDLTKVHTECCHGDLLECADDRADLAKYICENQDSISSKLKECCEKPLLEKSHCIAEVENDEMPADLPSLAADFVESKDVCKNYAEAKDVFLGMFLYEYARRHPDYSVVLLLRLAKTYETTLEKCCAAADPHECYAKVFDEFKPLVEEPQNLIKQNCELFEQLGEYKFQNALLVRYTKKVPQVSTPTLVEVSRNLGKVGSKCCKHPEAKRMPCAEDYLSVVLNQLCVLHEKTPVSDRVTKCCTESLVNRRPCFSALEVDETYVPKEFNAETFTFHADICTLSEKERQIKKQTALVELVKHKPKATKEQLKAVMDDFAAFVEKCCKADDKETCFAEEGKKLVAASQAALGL

B1: monoclonal antibody D32.10 (antibody, V domains shown)
VH: EVQLQQSGAELVKPGASVKLSCTPSGFNIKDTYIHWVKQRPEQGLEWIGMINPANGNSNYDPKFQDKATITADTSSNTAYLQLSSLTSEDTAVYYCAEITTDFDVWGAGTTVTVSS
VL: NIVLTQSPPSLAVSLGQRATISCRASESVDSYGNSFLHWYQQKSGQPPKLLIYLASNLESGVPARFSGSGSRTDFTLTIDPLEADDAATYYCQQNNEAPFTFGSGTKLEIKR
notes: also called mAb D32.10; MAb D32.10
binding result [1]: binds
binding result [2]: binds
binding result [3]: binds
binding result [4]: binds
binding result [5]: binds
binding result [6]: no binding
binding result [7]: no binding
binding result [8]: binds
binding result (human serum albumin): no binding
